According to patent publication US7148014 (University of Pennsylvania, dated 2006):

Biological target: T1, FcγRIIIA α + γ (WT) on transfected COS-1 cells (human; mouse, UniProt P08637 17-254; P20491 19-86)
T1 construct: whole, on cells; also called FcγRIIIA-γγ; FcγRIIIA α and wild type γ
Assay: flow cytometry, COS-1 cells cotransfected with α and γ

T1 sequence (P08637 17-254, chain 1 of 2): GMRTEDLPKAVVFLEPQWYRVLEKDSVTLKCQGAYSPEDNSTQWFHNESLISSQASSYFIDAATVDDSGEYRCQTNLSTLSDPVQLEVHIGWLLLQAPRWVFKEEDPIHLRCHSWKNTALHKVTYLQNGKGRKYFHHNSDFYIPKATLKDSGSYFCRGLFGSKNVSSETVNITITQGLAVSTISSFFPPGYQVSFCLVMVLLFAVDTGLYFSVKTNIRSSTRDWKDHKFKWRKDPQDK
T1 sequence (P20491 19-86, chain 2 of 2): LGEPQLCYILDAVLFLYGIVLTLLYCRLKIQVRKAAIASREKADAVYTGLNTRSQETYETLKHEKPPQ

- fold increase of mean fluorescence intensity over IgG isotype control or mock-transfected cells: 15 fold
B1: anti-FcγRIII mAb, 3G8 (antibody)
chain 1: QVTLKESGPGILQPSQTLSLTCSFSGFSLRTSGMGVGWIRQPSGKGLEWLAHIWWDDDKRYNPALKSRLTISKDTSSNQVFLKIASVDTADTATYYCAQINPAWFAYWGQGTLVTVS
chain 2: DIVLTQSPASLAVSLGQRATISCKASQSVDFDGDSFMNWYQQKPGQPPKLLIYTTSNLESGIPARFSASGSGTDFTLNIHPVEEEDTATYYCQQSNEDPYTFGGGTKLELK
